{"source": "patent US20140348819A1", "about": "“Methods of Treating Cancer” (Dana-Farber Cancer Institute, Inc., priority 2011, published 2014)", "molecules": {"B1": {"name": "flt-3 ligand (FL) (protein, UniProt P49771 27-235, looked up)", "Fms-related tyrosine kinase 3 …": "TQDCSFQHSPISSDFAVKIRELSDYLLQDYPVTVASNLQDEELCGGLWRLVLAQRWMERLKTVAGSKMQGLLERVNTEIHFVTKCAFQPPPSCLRFVQTNISRLLQETSEQLVALKPWITRQNFSRCLELQCQPDSSTLPPPWSPRPLEATAPTAPQPPLLLLLLLPVGLLLLAAAWCLHWQRTRRRTPRPGEQVPPVPSPQDLLLVEH"}}, "system": "six V600E BRAF melanoma cell lines", "experiment": "Screening of recombinant RTK ligands for ability to confer resistance to BRAFi (PLX4720) or MEKi (PD184352) (Table 4)", "format": "cell-based, human", "parameters": "ability of recombinant RTK ligand to confer resistance / ability of recombinant RTK ligand to confer resistance (screening value): scale not given here", "outline": "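Resistance to BRAFi (PLX4720) or MEKi (PD184352) was tested in six V600E BRAF melanoma lines given one of 22 recombinant RTK ligands. For a subset of RTKs, activation was checked by high-throughput tyrosine kinase phosphorylation profiling and western blot.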", "data": [{"molecule": "B1", "values": [{"measurement": "ability of recombinant RTK ligand to confer resistance", "setting": "A2058, PD184352 - 1 uM, ligand 0.4 ng/ml", "value": 1.03}, {"measurement": "ability of recombinant RTK ligand to confer resistance", "setting": "A2058, PD184352 - 1 uM, ligand 1.6 ng/ml", "value": 0.99}, {"measurement": "ability of recombinant RTK ligand to confer resistance", "setting": "A2058, PD184352 - 1 uM, ligand 6.25 ng/ml", "value": 1.00}, {"measurement": "ability of recombinant RTK ligand to confer resistance", "setting": "A2058, PD184352 - 1 uM, ligand 25 ng/ml", "value": 1.02}, {"measurement": "ability of recombinant RTK ligand to confer resistance", "setting": "A2058, PD184352 - 1 uM, ligand 100 ng/ml", "value": 0.89}, {"measurement": "ability of recombinant RTK ligand to confer resistance", "setting": "A2058, PLX4720 - 2 uM, ligand 0.4 ng/ml", "value": 0.97}, {"measurement": "ability of recombinant RTK ligand to confer resistance", "setting": "A2058, PLX4720 - 2 uM, ligand 1.6 ng/ml", "value": 0.98}, {"measurement": "ability of recombinant RTK ligand to confer resistance", "setting": "A2058, PLX4720 - 2 uM, ligand 6.25 ng/ml", "value": 1.01}, {"measurement": "ability of recombinant RTK ligand to confer resistance", "setting": "A2058, PLX4720 - 2 uM, ligand 25 ng/ml", "value": 1.06}, {"measurement": "ability of recombinant RTK ligand to confer resistance", "setting": "A2058, PLX4720 - 2 uM, ligand 100 ng/ml", "value": 0.93}, {"measurement": "ability of recombinant RTK ligand to confer resistance", "setting": "C32, PD184352 - 1 uM, ligand 0.4 ng/ml", "value": 1.02}, {"measurement": "ability of recombinant RTK ligand to confer resistance", "setting": "C32, PD184352 - 1 uM, ligand 1.6 ng/ml", "value": 1.08}, {"measurement": "ability of recombinant RTK ligand to confer resistance", "setting": "C32, PD184352 - 1 uM, ligand 6.25 ng/ml", "value": 1.10}, {"measurement": "ability of recombinant RTK ligand to confer resistance", "setting": "C32, PD184352 - 1 uM, ligand 25 ng/ml", "value": 1.08}, {"measurement": "ability of recombinant RTK ligand to confer resistance", "setting": "C32, PD184352 - 1 uM, ligand 100 ng/ml", "value": 1.07}, {"measurement": "ability of recombinant RTK ligand to confer resistance", "setting": "C32, PLX4720 - 2 uM, ligand 0.4 ng/ml", "value": 0.99}, {"measurement": "ability of recombinant RTK ligand to confer resistance", "setting": "C32, PLX4720 - 2 uM, ligand 1.6 ng/ml", "value": 0.97}, {"measurement": "ability of recombinant RTK ligand to confer resistance", "setting": "C32, PLX4720 - 2 uM, ligand 6.25 ng/ml", "value": 1.00}, {"measurement": "ability of recombinant RTK ligand to confer resistance", "setting": "C32, PLX4720 - 2 uM, ligand 25 ng/ml", "value": 0.87}, {"measurement": "ability of recombinant RTK ligand to confer resistance", "setting": "C32, PLX4720 - 2 uM, ligand 100 ng/ml", "value": 0.97}, {"measurement": "ability of recombinant RTK ligand to confer resistance", "setting": "Colo 829, PD184352 - 1 uM, ligand 0.4 ng/ml", "value": 1.07}, {"measurement": "ability of recombinant RTK ligand to confer resistance", "setting": "Colo 829, PD184352 - 1 uM, ligand 1.6 ng/ml", "value": 0.98}, {"measurement": "ability of recombinant RTK ligand to confer resistance", "setting": "Colo 829, PD184352 - 1 uM, ligand 6.25 ng/ml", "value": 0.97}, {"measurement": "ability of recombinant RTK ligand to confer resistance", "setting": "Colo 829, PD184352 - 1 uM, ligand 25 ng/ml", "value": 1.05}, {"measurement": "ability of recombinant RTK ligand to confer resistance", "setting": "Colo 829, PD184352 - 1 uM, ligand 100 ng/ml", "value": 0.97}, {"measurement": "ability of recombinant RTK ligand to confer resistance", "setting": "Colo 829, PLX4720 - 2 uM, ligand 0.4 ng/ml", "value": 1.08}, {"measurement": "ability of recombinant RTK ligand to confer resistance", "setting": "Colo 829, PLX4720 - 2 uM, ligand 1.6 ng/ml", "value": 0.98}, {"measurement": "ability of recombinant RTK ligand to confer resistance", "setting": "Colo 829, PLX4720 - 2 uM, ligand 6.25 ng/ml", "value": 1.00}, {"measurement": "ability of recombinant RTK ligand to confer resistance", "setting": "Colo 829, PLX4720 - 2 uM, ligand 25 ng/ml", "value": 1.05}, {"measurement": "ability of recombinant RTK ligand to confer resistance", "setting": "Colo 829, PLX4720 - 2 uM, ligand 100 ng/ml", "value": 0.97}, {"measurement": "ability of recombinant RTK ligand to confer resistance", "setting": "G-361, PD184352 - 1 uM, ligand 0.4 ng/ml", "value": 1.04}, {"measurement": "ability of recombinant RTK ligand to confer resistance", "setting": "G-361, PD184352 - 1 uM, ligand 1.6 ng/ml", "value": 1.09}, {"measurement": "ability of recombinant RTK ligand to confer resistance", "setting": "G-361, PD184352 - 1 uM, ligand 6.25 ng/ml", "value": 0.97}, {"measurement": "ability of recombinant RTK ligand to confer resistance", "setting": "G-361, PD184352 - 1 uM, ligand 25 ng/ml", "value": 1.01}, {"measurement": "ability of recombinant RTK ligand to confer resistance", "setting": "G-361, PD184352 - 1 uM, ligand 100 ng/ml", "value": 0.89}, {"measurement": "ability of recombinant RTK ligand to confer resistance", "setting": "G-361, PLX4720 - 2 uM, ligand 0.4 ng/ml", "value": 1.00}, {"measurement": "ability of recombinant RTK ligand to confer resistance", "setting": "G-361, PLX4720 - 2 uM, ligand 1.6 ng/ml", "value": 0.87}, {"measurement": "ability of recombinant RTK ligand to confer resistance", "setting": "G-361, PLX4720 - 2 uM, ligand 6.25 ng/ml", "value": 0.88}, {"measurement": "ability of recombinant RTK ligand to confer resistance", "setting": "G-361, PLX4720 - 2 uM, ligand 25 ng/ml", "value": 0.88}, {"measurement": "ability of recombinant RTK ligand to confer resistance", "setting": "G-361, PLX4720 - 2 uM, ligand 100 ng/ml", "value": 0.79}, {"measurement": "ability of recombinant RTK ligand to confer resistance", "setting": "SK-MEL-5, PD184352 - 1 uM, ligand 0.4 ng/ml", "value": 0.97}, {"measurement": "ability of recombinant RTK ligand to confer resistance", "setting": "SK-MEL-5, PD184352 - 1 uM, ligand 1.6 ng/ml", "value": 0.97}, {"measurement": "ability of recombinant RTK ligand to confer resistance", "setting": "SK-MEL-5, PD184352 - 1 uM, ligand 6.25 ng/ml", "value": 1.00}, {"measurement": "ability of recombinant RTK ligand to confer resistance", "setting": "SK-MEL-5, PD184352 - 1 uM, ligand 25 ng/ml", "value": 0.92}, {"measurement": "ability of recombinant RTK ligand to confer resistance", "setting": "SK-MEL-5, PD184352 - 1 uM, ligand 100 ng/ml", "value": 0.90}, {"measurement": "ability of recombinant RTK ligand to confer resistance", "setting": "SK-MEL-5, PLX4720 - 2 uM, ligand 0.4 ng/ml", "value": 1.07}, {"measurement": "ability of recombinant RTK ligand to confer resistance", "setting": "SK-MEL-5, PLX4720 - 2 uM, ligand 1.6 ng/ml", "value": 1.07}, {"measurement": "ability of recombinant RTK ligand to confer resistance", "setting": "SK-MEL-5, PLX4720 - 2 uM, ligand 6.25 ng/ml", "value": 1.03}, {"measurement": "ability of recombinant RTK ligand to confer resistance", "setting": "SK-MEL-5, PLX4720 - 2 uM, ligand 25 ng/ml", "value": 0.93}, {"measurement": "ability of recombinant RTK ligand to confer resistance", "setting": "SK-MEL-5, PLX4720 - 2 uM, ligand 100 ng/ml", "value": 1.04}, {"measurement": "ability of recombinant RTK ligand to confer resistance", "setting": "SK-MEL-28, PD184352 - 1 uM, ligand 0.4 ng/ml", "value": 1.04}, {"measurement": "ability of recombinant RTK ligand to confer resistance", "setting": "SK-MEL-28, PD184352 - 1 uM, ligand 1.6 ng/ml", "value": 0.95}, {"measurement": "ability of recombinant RTK ligand to confer resistance", "setting": "SK-MEL-28, PD184352 - 1 uM, ligand 6.25 ng/ml", "value": 0.98}, {"measurement": "ability of recombinant RTK ligand to confer resistance", "setting": "SK-MEL-28, PD184352 - 1 uM, ligand 25 ng/ml", "value": 0.78}, {"measurement": "ability of recombinant RTK ligand to confer resistance", "setting": "SK-MEL-28, PD184352 - 1 uM, ligand 100 ng/ml", "value": 0.99}, {"measurement": "ability of recombinant RTK ligand to confer resistance", "setting": "SK-MEL-28, PLX4720 - 2 uM, ligand 0.4 ng/ml", "value": 0.94}, {"measurement": "ability of recombinant RTK ligand to confer resistance", "setting": "SK-MEL-28, PLX4720 - 2 uM, ligand 1.6 ng/ml", "value": 0.90}, {"measurement": "ability of recombinant RTK ligand to confer resistance", "setting": "SK-MEL-28, PLX4720 - 2 uM, ligand 6.25 ng/ml", "value": 0.86}, {"measurement": "ability of recombinant RTK ligand to confer resistance", "setting": "SK-MEL-28, PLX4720 - 2 uM, ligand 25 ng/ml", "value": 0.82}, {"measurement": "ability of recombinant RTK ligand to confer resistance", "setting": "SK-MEL-28, PLX4720 - 2 uM, ligand 100 ng/ml", "value": 0.98}]}]}
